According to patent publication US7662388B2, “Endogenous peptide and active subfragments thereof” (Innoventus Project AB, priority 2003, dated 2010):

Assays:
primary BCE cells [1] = assay: dose response study Pep2, chemotaxis of BCE cells; assay type: cell-based, bovine; conditions: 20, 50 or 100 ng/ml, FGF-2 10 ng/ml, Zn2+-acetate
Experimental: A migration assay was performed in a modified Boyden chamber as described earlier (Auerbach et al., 1991) using micropore polycarbonate filters (8 μm thick, 8 μm pore) coated with type-1 collagen solution at 100 μg/ml (Vitrogen 100, Collagen Corp). BCE Cells were trypsinised and resuspended at 7.5×10^5 cells/ml in Dulbecco's modified essential medium (Invitrogen) containing 0.25% BSA and Trasylol at 1000 KIE. The cell suspension was added in the upper chamber and FGF-2 (10 ng/ml), and/or peptide 2 (20, 50 or 100 ng/ml) in medium containing 0.25% BSA were added to the lower chamber. The peptides were dissolved in PBS containing a 10-fold molar excess (Zn:peptide) of Zn^2+-acetate. After 5 h at 37° C., cells that had migrated through the filter were stained with Giemsa and counted using an the Easy Image Analysis software. All samples were analysed in at least six wells for each treatment and at several separate occasions.

primary BCE cells [2] = assay: comparative study pep2/pep3, chemotaxis; assay type: cell-based, bovine; conditions: 50 ng/ml peptide, FGF-2 10 ng/ml, Zn2+-acetate
Experimental: Primary endothelial cells were starved over night in 0.5% normal calf serum. A migration assay was performed in a modified Boyden chamber as described earlier (Auerbach et al., 1991) using micropore polycarbonate filters (8 μm thick, 8 μm pore) coated with type-1 collagen solution at 100 μg/ml (Vitrogen 100, Collagen Corp). Cells were trypsinized and resuspended at 7.5×10^5 cells/ml in Dulbecco's modified essential medium (Invitrogen) containing 0.25% BSA and Trasylol at 1000 KIE. The cell suspension was added in the upper chamber and FGF-2 (10 ng/ml), HRGP (100 ng/ml), peptide 2 or 3 (50 ng/ml) in medium containing 0.25% BSA were added to the lower chamber. The peptides were dissolved in PBS containing a 10-fold molar excess (Zn:peptide) of Zn^2+-acetate. After 5 h at 37° C., cells that had migrated through the filter were stained with Giemsa and counted using the Easy Image Analysis software. All samples were analyzed in at least six wells for each treatment. Results of the study are illustrated in FIG. 7.

T241 fibrosarcoma cells [3] = assay: animal study Pep2, fibrosarcoma tumour growth; assay type: in vivo; conditions: 5 mg/kg/day s.c. daily, mice bearing fibrosarcoma
Experimental: Tumour study: Female, 5 week old, C57BL6/J mice (Mollegard/Bomhultgard, Denmark) were injected with 0.5×10^6 T241 fibrosarcoma cells subcutaneously (s.c.) into the left flank. Animals carrying palpable tumours were randomised (n=5-10 animals/treatment group) and received treatment with vehicle (Zn-acetate in NaCl), 5 mg/kg/day of HIS1 (=full-length HRGP) or Pep2, in a volume of 100 microliters, given as s.c. injections daily, in the right flank. The tumours were measured with a caliper once a day, in a blind procedure, and volumes were calculated by the formula […]×width^2×length. When the tumours reached the upper limit of 2 cm^3, the mice were sacrificed. The animals were anesthetised with isoflurane (Forene; Abbott) during all manipulations.

[4] = system: chicken chorioallantoic membrane (CAM); assay: chicken chorioallantoic membrane (CAM) angiogenesis assay; assay type: in vivo; conditions: for growth factor-induced CAM angiogenesis (newly formed vessels): FGF-2 or VEGF-A 0.2 mg per filter, HRGP 3 mg per filter, three days
Experimental: The effect of HRGP on anglogenesis was tested in the chicken chorioallantoic membrane (CAM) assay.
The conditions for the chorioallantoic membrane (CAM) assay followed essentially a previously described procedure (Friedlander et al (1995), Dixelius et al, (2000)). FGF-2 (Boehringer Mannheim) and VEGF-A (Peprotech) was used at 0.2 mg per filter and purified pHRGP or rHRGP at 3 mg per filter. The treated CAM's were inspected in a light microscope and the score, from 0 (low) to 3 (high) was based on the number of vessel branch points. Average values for 5-6 embryos were recorded.
A filter disc soaked in vehicle or growth factor, with or without HRGP, was placed on top of the CAM in the vicinity of a large vessel and incubated for three days. Treatment of the CAM with growth factors, such as FGF-2, stimulated angiogenesis (FIG. 1C; Table 1).

T241 fibrosarcoma cells [5] = assay: fibrosarcoma tumour growth in mice (HRGP); assay type: in vivo; conditions: 4 mg/kg/day s.c. daily, control PBS, 11 days
Experimental: Animal work was carried out at the local animal facility and was approved by the Uppsala University board of animal experimentation and thus performed according to the UKCCCR guidelines for the welfare of animals in experimental neoplasia (Workman et al (1988)). The mice were anesthetized with isoflurane (Forene; Abbott) during all manipulations. Female, 5 week old, C57BL6/1 mice (Mollegard/Bomhultgard, Denmark) were injected with 0.5×10^6 T241 fibrosarcoma cells subcutaneously (s.c.) into the left flank. Animals carrying palpable tumours were randomized (n=7-10 animals/treatment group) and received treatment with vehicle (PBS), 4 mg/kg/day of pHRGP or 5 mg/kg/day of human IgG or His-HRGP, given as daily subcutaneous injections in the right flank. The tumours were measured with a caliper once a day, in a blind procedure, and volumes were calculated by the formula […]. When the tumours reached the upper limit of 2 cm^3, the mice were sacrificed. Three animals in each group were perfused with 4% paraformaldehyde in PBS pH 7.4. Tumours were embedded in paraffin according to standard histological procedures and sectioned at […] thickness.
C57/bl6 mice were inoculated subcutaneously with T241 fibrosarcoma cells on their left flank and when the tumours were palpable (after 4-6 days), a daily treatment was initiated with HRGP or control (PBS; FIG. 2A, or human IgG; FIG. 2B). Endostatin was included in one study for comparison (FIG. 2B). The treatment was given as subcutaneous injections in the right flank until the size of the control tumours reached the upper limit of […] (11 days; FIG. 2A, 14 days; FIG. 2B). Injections with both pHRGP (4 mg/kg/day) and His-HRGP (5 mg/kg/day) led to a drastic reduction in tumour growth and at the time of sacrifice, the size of the tumours was reduced by 67% (FIG. 2A) and 61% (FIG. 2B) respectively, compared to control-treated animals. Endostatin treatment (25 mg/kg/day) lacked significant inhibitory effect on tumour growth in this model (32% decrease).

primary BCE cells [6] = assay: chemotaxis (migration) assay in modified Boyden chamber, BCE cells; assay type: cell-based, bovine
Experimental: (§1) The porcine aortic endothelial (PAE) cell line overexpressing FGF receptor-1 (FGFR-1) (Wennström et al 1992) was cultured in Ham's F12/10% fetal bovine serum (FCS) and NIH 3T3 murine fibroblasts were cultured in Dulbecco's modified medium (DMEM)/10% newborn calf serum (NCS). F12, DMEM and serum were bought from Life Technologies. Primary bovine adrenal cortex capillary endothelial (BCE) cells were cultured on gelatin-coated dishes in DMEM/10% NCS and 2 ng/ml FGF-2 (Boehringer Mannheim). For chemotaxis assays, both PAE and NIH 3T3 cells were serum-starved over night in 0.1% BSA and BCE cells in 0.5% NCS. Human embryonic kidney (HEK) 293-EBNA cells were cultured in DMEM/10% FCS. Approximately every second month they were given 0.25 mg/ml G418 (Calbiochem) to ensure positive selection of the EBNA-1 expressing cells.
A migration assay was performed in a modified Boyden chamber as described earlier (Auerbach et al., 1991) using micropore polycarbonate filters (8 μm thick, 8 μm pore) coated with type-1 collagen solution at 100 μg/ml (Vitrogen 100, Collagen Corp). BCE, PAE/FGFR-1 or NIH 3T3 cells were preincubated or not with HRGP (100 ng/ml) for 30 min, trypsinised and resuspended at a concentration of 7.5×10^5 cells/ml in Dulbecco's modified essential medium (Invitrogen) containing 0.25% BSA and Trasylol at 1000 KIE. FGF-2 and VEGF-A was used at 5 ng/ml, HRGP and the protein C inhibitor (PCI) at 100 ng/ml and BSA at 0.25%. After 5 h at 37° C., migrated cells were stained with Giemsa and counted using an image analysis software (Easy Image Analysis) from Tekno Optik AB, Sweden. All samples were analysed in at least six parallel wells for each treatment.

[7] = system: NIH 3T3 murine fibroblasts; assay: chemotaxis assay in modified Boyden chamber, NIH 3T3 fibroblasts; assay type: cell-based; conditions: 100 ng/ml HRGP
Experimental: as §1
A migration assay was performed in a modified Boyden chamber as described earlier (Auerbach et al., 1991) using micropore polycarbonate filters (8 μm thick, 8 μm pore) coated with type-1 collagen solution at 100 μg/ml (Vitrogen 100, Collagen Corp). […] After 5 h at 37° C., migrated cells were stained with Giemsa and counted using an image analysis software (Easy Image Analysis) from Tekno Optik AB, Sweden. All samples were analysed in at least six parallel wells for each treatment.

Pep2: amino acid subfragment of 35 amino acids, amino acids 330-364 of mature human HRGP (DLHPHKHHSHEQHPHGHHPHAHHPHEHDTHRQHPH; listed as Homo sapiens)
FGF-2-induced chemotaxis of primary BCE cells, dose response (primary BCE cells [1]): dose-dependently inhibited | FGF-2-induced chemotaxis of primary BCE cells (primary BCE cells [2]): inhibited | tumour growth (tumour volume) (T241 fibrosarcoma cells [3]): inhibits tumor growth

Pep3: 25 amino acid subfragment of the central region, amino acids 365-389 of mature human HRGP, described in WO02/064621 (GHHPHGHHPHGHHPHGHHPHGHHPH; listed as Homo sapiens) [reference compound]
FGF-2-induced chemotaxis of primary BCE cells (primary BCE cells [2]; listed as SEQ.ID.NO:4): not to be active for inhibiting angiogenesis

B1: pHRGP: HRGP purified from human plasma (protein)
chain: VSPTDCSAVEPEAEKALDLINKRRRDGYLFQLLRIADAHLDRVENTTVYYLVLDVQESDCSVLSRKYWNDCEPPDSRRPSEIVIGQCKVIATRHSHESQDLRVIDFNCTTSSVSSALANTKDSPVLIDFFEDTERYRKQANKALEKYKEENDDFASFRVDRIERVARVRGGEGTGYFVDFSVRNCPRHHFPRHPNVFGFCRADLFYDVEALDLESPKNLVINCEVFDPQEHENINGVPPHLGHPFHWGGHERSSTTKPPFKPHGSRDHHHPHKPHEHGPPPPPDERDHSHGPPLPQGPPPLLPMSCSSCQHATFGTNGAQRHSHNNNSSDLHPHKHHSHEQHPHGHHPHAHHPHEHDTHRQHPHGHHPHGHHPHGHHPHGHHPHGHHPHCHDFQDYGPCDPPPHNQGHCCHGHGPPPGHLRRRGPGKGPRPFHCRQIGSVYRLPPLRKGEVLPLPEANFPSFPLPHHKHPLKPDNQPFPQSVSESCPGKFKSGFPQVSMFFTHTFPK
growth factor-induced CAM angiogenesis (newly formed vessels) [4]: efficient suppression of newly formed vessels | effect on pre-established vessels of the CAM ([4]; FGF-2 or VEGF-A together with pHRGP, 3 mg per filter): remained unaffected | reduction of tumour size compared to control-treated animals at sacrifice (T241 fibrosarcoma cells [5]): 67%

B2: rHRGP: recombinant HRGP produced in HEK-293-EBNA cells without a His-tag (protein)
chain: B1 chain
growth factor-induced CAM angiogenesis (newly formed vessels) [4]: The same result was obtained | FCS-induced chemotaxis of BCE cells (primary BCE cells [6]; 100 ng/ml HRGP): not inhibited | VEGF-A-induced chemotaxis of BCE cells (primary BCE cells [6]; 100 ng/ml HRGP, VEGF-A 5 ng/ml): attenuated | FGF-2-induced chemotaxis of BCE cells (primary BCE cells [6]; 100 ng/ml protein, FGF-2 5 ng/ml, 5 h): completely blocked | FGF-2-induced chemotaxis of NIH 3T3 murine fibroblasts [7]: not affected
